# According to paper PMC2112520:
# Target: 125I-PDGF plasma-binding protein of human plasma (about 280,000 mol wt) (human (endogenous in plasma))
substance,measurement,value
125I-labelled human platelet-derived growth factor II (from UniProt P04085 87-211; P01127 82-190) (ligand),percent of added 125I-PDGF bound,10 to 20%
